Experiments:
[1] = Stability of the entomotoxic activity (storage in dry seeds, heating)
Experimental: In addition, this activity is not affected by heating to 100° C.

humans or higher animals = conditions: present in legumes of the conventional diet; no test described; cited from earlier work

Q: For “PAlb protein: pea albumin PA1b (SEQ ID NO: 7) described by HIGGINS et al. (ASCNGVCSPFEMPPCGTSACRCIPVGLVVGYCRNPSG)”, which “entomotoxic/insecticidal activity after storage” value ([1]; dry seeds stored for several years) is on record?
A: conserves its insecticidal activity

Q: What about the “entomotoxic/insecticidal activity after heating” value ([1]; heating to 100° C.) of the same substance?
A: not affected

Q: What about the “toxicity for humans or higher animals” value (humans or higher animals) of the same substance?
A: not toxic
